Six molecules from patent US20160244509A1 can be followed below.

Like-named read-outs stand apart in the source and are kept apart here.

Common to all, as to assay: cell-based or functional assay
In assay [1] the target is RSV F protein of RS virus subtype B strains (2007-2 and Z).
In assay [2] the target is RSV F protein of RS virus subtype A strains (A2, X and 2006-1).
Assay [3] has the same target. The source holds these as a separate data set.
Assay [4] addresses RSV F protein of RS virus subtype B strains (2007-2 and Z). This is another data set of the same source.

B1: AM14 (antibody, V domains shown)
VH: EVQLVESGGGVVQPGRSLRLSCAASGFSFSHYAMHWVRQAPGKGLEWVAVISYDGENTYYADSVKGRFSISRDNSKNTVSLQMNSLRPEDTALYYCARDRIVDDYYYYGMDVWGQGATVTVSS
VL: DIQMTQSPSSLSASVGDRVTITCQASQDIKKYLNWYHQKPGKVPELLMHDASNLETGVPSRFSGRGSGTDFTLTISSLQPEDIGTYYCQQYDNLPPLTFGGGTKVEIKRTV
In assay [1], B1 displayed an IC50 values (ng/ml), RS virus neutralization, HEp2 cells, subtype B of 6.7 ng/mL and an IC50 values (ng/ml), RS virus neutralization, Vero cells, subtype B of 1.1 ng/mL. Further, in assay [2], the IC50 values (ng/ml), RS virus neutralization, HEp2 cells, subtype A stood at 21.5 ng/mL and the IC50 values (ng/ml), RS virus neutralization, Vero cells, subtype A was 15.2 ng/mL.

B2: AM23 (antibody, V domains shown)
VH: EVQLVESGGNVVKPGTSLRLSCAATGFNFHNYGMNWVRQAPGKGLEWVAVVWYDGSKKYYADSVTGRFAISRDNSKNTLYLQMNSLRVEDTAVYYCVRDKVGPTPYFDSWGQGTLVTVSS
VL: SYVLTQPPSVSLAPGGTAAITCGRNNIGSETVHWYQQKPGQAPVLVVYDDDDRPSGIPERFSGSNSGNTATLTISRVEAGDEADYYCQVWDRSNYHQVFGGGTKLTV
In assay [1], B2 yielded an IC50 values (ng/ml), RS virus neutralization, HEp2 cells, subtype B of 191 ng/mL and an IC50 values (ng/ml), RS virus neutralization, Vero cells, subtype B of 169 ng/mL. In assay [2], this molecule displayed an IC50 values (ng/ml), RS virus neutralization, HEp2 cells, subtype A of 25 ng/mL and an IC50 values (ng/ml), RS virus neutralization, Vero cells, subtype A of 19.4 ng/mL.

B3: D25 (B63D10-D25), monoclonal antibody from the B cell line (culture supernatant or purified from it) (antibody, V domains shown)
VH: QVQLVQSGAEVKKPGSSVMVSCQASGGPLRNYIINWLRQAPGQGPEWMGGIIPVLGTVHYAPKFQGRVTITADESTDTAYIHLISLRSEDTAMYYCATETALVVSTTYLPHYFDNWGQGTLVTVSS
VL: DIQMTQSPSSLSAAVGDRVTITCQASQDIVNYLNWYQQKPGKAPKLLIYVASNLETGVPSRFSGSGSGTDFSLTISSLQPEDVATYYCQQYDNLPLTFGGGTKVEIKRTV
In the case of B3, in assay [1], the IC50 values (ng/ml), RS virus neutralization, HEp2 cells, subtype B came to 14.3 ng/mL and the IC50 values (ng/ml), RS virus neutralization, Vero cells, subtype B turned out to be 9 ng/mL. In assay [2], this molecule registered an IC50 values (ng/ml), RS virus neutralization, HEp2 cells, subtype A of 3.3 ng/mL and an IC50 values (ng/ml), RS virus neutralization, Vero cells, subtype A of 3.4 ng/mL.

B4: recombinant purified D25 (rD25), expressed in 293T cells (antibody, V domains shown)
VH: B3 VH
VL: B3 VL
In assay [1], B4 displayed an IC50 values (ng/ml), RS virus neutralization, HEp2 cells, subtype B of 1.9 ng/mL and an IC50 values (ng/ml), RS virus neutralization, Vero cells, subtype B of 0.3 ng/mL. In assay [2], this molecule gave an IC50 values (ng/ml), RS virus neutralization, HEp2 cells, subtype A of 2.1 ng/mL and an IC50 values (ng/ml), RS virus neutralization, Vero cells, subtype A of 1.6 ng/mL.

B5: recombinant GENEART codon optimized D25 (rD25 GA) (antibody, V domains shown)
VH: B3 VH
VL: DIQMTQSPSSLSAAVGDRVTITCQASQDIVNYLNWYQQKPGKAPKLLIYVASNLETGVPSRFSGSGSGTDFSLTISSLQPEDVATYYCQQYDNLPLTFGGGTKVEIKR
In assay [3], B5 showed an IC50 values (ng/ml), RS virus neutralization, HEp2 cells, subtype A of 5.3 ng/mL and an IC50 values (ng/ml), RS virus neutralization, Vero cells, subtype A of 3.2 ng/mL. For the same molecule, in assay [4], the IC50 values (ng/ml), RS virus neutralization, HEp2 cells, subtype B was found to be 1.3 ng/mL and the IC50 values (ng/ml), RS virus neutralization, Vero cells, subtype B is 1.2 ng/mL.

B6: AM16 (antibody, V domains shown)
VH: EVQLVETGGGLAQPGGSLRLSCAASGFTFSSYNMNWVRQAPGKGLEWVSHISAGSSYIYYSDSVKGRFTVSRDNVRNSVYLQMNSLRAADTAVYYCAREDYGPGNYYSPNWFDPWGQGTLVTVSS
VL: QSVVTQPPSVSGAPGQRVTISCTGSSSNIGAGYDVHWYQQLPGTAPKLLIYGNTNRPSGVSDRFSGSKSGTSASLAITGLQAEDEADYYCHSYDRSLSGSVFGGGTKLTV
In assay [1], B6 returned an IC50 values (ng/ml), RS virus neutralization, HEp2 cells, subtype B of 125 ng/mL and an IC50 values (ng/ml), RS virus neutralization, Vero cells, subtype B of 126 ng/mL. In assay [2], this molecule showed an IC50 values (ng/ml), RS virus neutralization, HEp2 cells, subtype A of 286 ng/mL and an IC50 values (ng/ml), RS virus neutralization, Vero cells, subtype A of 304 ng/mL.
